Article PMC5291270

T1: Flag-SA1 WT (UniProt Q8WVM7)
T1 sequence: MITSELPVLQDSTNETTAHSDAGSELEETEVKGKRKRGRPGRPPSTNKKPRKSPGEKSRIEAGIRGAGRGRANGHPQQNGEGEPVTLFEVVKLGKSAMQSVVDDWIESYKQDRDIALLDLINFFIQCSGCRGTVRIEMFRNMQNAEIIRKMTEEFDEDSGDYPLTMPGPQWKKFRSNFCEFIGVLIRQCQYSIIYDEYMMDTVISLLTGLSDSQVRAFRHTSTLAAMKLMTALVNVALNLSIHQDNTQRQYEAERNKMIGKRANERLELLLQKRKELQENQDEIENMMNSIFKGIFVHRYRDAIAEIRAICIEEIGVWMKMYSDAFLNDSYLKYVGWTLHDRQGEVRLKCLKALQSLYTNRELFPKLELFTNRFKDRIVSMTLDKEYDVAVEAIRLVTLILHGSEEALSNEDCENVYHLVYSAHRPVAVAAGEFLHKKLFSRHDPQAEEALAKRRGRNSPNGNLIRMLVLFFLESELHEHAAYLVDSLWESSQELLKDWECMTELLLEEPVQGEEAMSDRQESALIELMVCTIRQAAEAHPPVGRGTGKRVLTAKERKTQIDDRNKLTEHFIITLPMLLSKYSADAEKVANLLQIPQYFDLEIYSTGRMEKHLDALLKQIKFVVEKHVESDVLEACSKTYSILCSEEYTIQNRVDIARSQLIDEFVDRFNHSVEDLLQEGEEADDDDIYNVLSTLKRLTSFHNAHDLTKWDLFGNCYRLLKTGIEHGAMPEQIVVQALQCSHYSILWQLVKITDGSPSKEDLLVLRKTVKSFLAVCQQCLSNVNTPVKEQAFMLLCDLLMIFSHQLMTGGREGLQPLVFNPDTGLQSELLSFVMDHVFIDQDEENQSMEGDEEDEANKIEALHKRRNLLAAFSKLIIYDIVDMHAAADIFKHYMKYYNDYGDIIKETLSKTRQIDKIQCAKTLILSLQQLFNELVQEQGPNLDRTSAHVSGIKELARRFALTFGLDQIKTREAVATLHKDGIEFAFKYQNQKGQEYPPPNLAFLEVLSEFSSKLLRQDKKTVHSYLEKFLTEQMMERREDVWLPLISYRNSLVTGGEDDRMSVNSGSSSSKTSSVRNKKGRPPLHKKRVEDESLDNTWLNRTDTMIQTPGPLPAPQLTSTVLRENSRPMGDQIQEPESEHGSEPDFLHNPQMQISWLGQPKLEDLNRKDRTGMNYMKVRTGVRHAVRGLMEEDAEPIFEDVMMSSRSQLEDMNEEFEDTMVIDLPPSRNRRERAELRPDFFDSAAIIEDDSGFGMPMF

T2: Flag-SA1 WT (UniProt Q8WVM7 1-1258)
T2 sequence: T1 sequence

B1: Tel7 (7 TTAGGG repeats) (dsDNA)
DNA 1: CTGGATCCGTACTTAGGGTTAGGGTTAGGGTTAGGGTTAGGGTTAGGGTTAGGGACAAGAATTCGA
DNA 2: TCGAATTCTTGTCCCTAACCCTAACCCTAACCCTAACCCTAACCCTAACCCTAAGTACGGATCCAG
B2: Scram (scrambled Tel7) (dsDNA)
DNA 1: CTGGATCCGTACAGTGTAAGGGTGAGTGGTTGGGTGTGTGGGTGTTGATGTAGAACAAGAATTCGA
DNA 2: TCGAATTCTTGTTCTACATCAACACCCACACACCCAACCACTCACCCTTACACTGTACGGATCCAG
B3: 3x TTAGGG EMSA duplex (dsDNA)
DNA 1: TTAGGGTTAGGGTTAGGGATGTCCAGCAAGCCAGAATTCGGCAGCGTA
DNA 2: TACGCTGCCGAATTCTGGCTTGCTGGACATCCCTAACCCTAACCCTAA

Experiments:
Flag-SA1 WT [1] = molecular target: T1, Flag-SA1 WT; assay: AFM; settings: scale: % of SA1 bound at same locations as telomeric region
Flag-SA1 WT [2] = molecular target: T2, Flag-SA1 WT; assay: fluorescence anisotropy
[3] = molecular target: TRF1;SA1 (EMSA with TRF1) (human?;human?, UniProt P54274;Q8WVM7 1-439;1-1258, |); assay: EMSA
TRF1;SA1 (EMSA with TRF1), sequence (P54274 whole entry, one chain of several): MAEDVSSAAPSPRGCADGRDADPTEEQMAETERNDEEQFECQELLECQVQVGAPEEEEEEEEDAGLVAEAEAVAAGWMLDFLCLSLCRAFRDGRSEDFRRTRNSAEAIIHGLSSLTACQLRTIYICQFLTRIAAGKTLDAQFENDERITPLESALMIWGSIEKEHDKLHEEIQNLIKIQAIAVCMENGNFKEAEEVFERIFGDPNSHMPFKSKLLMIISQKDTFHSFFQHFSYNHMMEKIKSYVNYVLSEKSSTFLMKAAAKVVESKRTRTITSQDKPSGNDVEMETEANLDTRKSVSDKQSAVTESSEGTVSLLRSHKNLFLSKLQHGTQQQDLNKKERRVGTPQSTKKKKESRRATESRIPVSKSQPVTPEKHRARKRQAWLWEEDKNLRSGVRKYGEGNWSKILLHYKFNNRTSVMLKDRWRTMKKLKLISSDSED

Molecule | Kd (Flag-SA1 WT [2]) [nM] | other results
genomic control DNA | – | binding signal (Flag-SA1 WT [1]): 27
B1 | 34 ± 5.8 | –
B2 | 104 ± 13.6 | –
B3 | – | binding result [3]: binds
